Biological target: the molecule itself
Experiment: crystal structure

B1: hASRGL1-Thr168Ala (human asparaginase-like protein 1, processing-inactive, precursor-like variant) (enzyme, UniProt Q7L266 1-308, looked up)
chain: MNPIVVVHGGGAGPISKDRKERVHQGMVRAATVGYGILREGGSAVDAVEGAVVALEDDPEFNAGCGSVLNTNGEVEMDASIMDGKDLSAGAVSAVQCIANPIKLARLVMEKTPHCFLTDQGAAQFAAAMGVPEIPGEKLVTERNKKRLEKEKHEKGAQKTDCQKNLGAVGAVALDCKGNVAYATSTGGIVNKMVGRVGDSPCLGAGGYADNDIGAVSTTGHGESILKVNLARLTLFHIEQGKTVEEAADLSLGYMKSRVKGLGGLIVVSKTGDWVAKWTSTSMPWAAAKDGKLHFGIDPDDTTITDLP
binding result: binds
